Laboratory results published in patent US20060240001A1 (AGOURON PHARMACEUTICALS, published 2006).
Numbering of substitutions follows the chain as printed.

Key:
[1] = molecular target: T1, human P-cadherin on the surface of cells (human, UniProt P22223 108-829); experiment: cell-based or functional assay
[2] = molecular target: T1, human P-cadherin on the surface of cells; experiment: cell-based or functional assay; remark: listed apart in the source
[3] = molecular target: T1, human P-cadherin on the surface of cells; experiment: cell-based or functional assay; remark: listed apart in the source
[4] = molecular target: T1, human P-cadherin on the surface of cells; experiment: epitope competition on A431 cells; competitor: biotinylated 129-1c4 IgG, DELFIA
[5] = molecular target: T1, human P-cadherin on the surface of cells; experiment: epitope competition on A431 cells; competitor: biotinylated 129-1c4 IgG at 3x KD, DELFIA
[6] = molecular target: T2, Recombinant human P-cadherin Fc (R&D Systems 861-PC-100) (human, UniProt P22223 108-654); experiment: SPR (BIACORE 3000), hCad/Fc immobilised, scFv as analyte, 1:1 fit
T2 construct: also called recombinant human P-cadherin/Fc fusion protein; hCad/Fc; not shown: Fc part of the bought fusion protein

[7] = molecular target: T3, mouse P-cadherin/Fc fusion protein (mouse, UniProt P10287 100-647, limits assumed); experiment: SPR (BIACORE 3000), mCad/Fc immobilised, scFv as analyte, 1:1 fit
T3 construct: also called mCad/Fc; not shown: Fc part of the fusion protein
T3 sequence (looked up): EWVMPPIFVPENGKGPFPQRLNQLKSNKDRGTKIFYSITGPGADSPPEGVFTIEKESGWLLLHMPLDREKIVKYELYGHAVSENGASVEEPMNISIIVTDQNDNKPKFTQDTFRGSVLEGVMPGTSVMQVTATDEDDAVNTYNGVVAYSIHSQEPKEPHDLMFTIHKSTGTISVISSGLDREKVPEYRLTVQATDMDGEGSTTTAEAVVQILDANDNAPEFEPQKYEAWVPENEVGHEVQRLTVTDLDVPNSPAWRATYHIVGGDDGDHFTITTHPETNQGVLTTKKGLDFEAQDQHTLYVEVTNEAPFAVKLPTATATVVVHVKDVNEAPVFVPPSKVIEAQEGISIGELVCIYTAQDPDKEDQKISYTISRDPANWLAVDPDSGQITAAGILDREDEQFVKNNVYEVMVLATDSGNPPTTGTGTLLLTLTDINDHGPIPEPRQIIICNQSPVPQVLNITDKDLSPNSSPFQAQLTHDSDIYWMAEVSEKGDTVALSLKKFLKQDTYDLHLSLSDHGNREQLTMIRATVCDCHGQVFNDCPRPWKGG

[8] = molecular target: T2, Recombinant human P-cadherin Fc (R&D …); experiment: ELISA; KD on E-cadherin over KD on P-cadherin
[9] = molecular target: T2, Recombinant human P-cadherin Fc (R&D …); experiment: ELISA on coated antigen, relative KD
[10] = molecular target: T4, recombinant human E-cadherin (R&D Systems 648-EC-100) (human, UniProt P12830 155-707); experiment: ELISA on coated E-cadherin, IgG titrated from 50 nM down to 0.64 nM
T4 construct: Bought protein
T4 sequence (looked up): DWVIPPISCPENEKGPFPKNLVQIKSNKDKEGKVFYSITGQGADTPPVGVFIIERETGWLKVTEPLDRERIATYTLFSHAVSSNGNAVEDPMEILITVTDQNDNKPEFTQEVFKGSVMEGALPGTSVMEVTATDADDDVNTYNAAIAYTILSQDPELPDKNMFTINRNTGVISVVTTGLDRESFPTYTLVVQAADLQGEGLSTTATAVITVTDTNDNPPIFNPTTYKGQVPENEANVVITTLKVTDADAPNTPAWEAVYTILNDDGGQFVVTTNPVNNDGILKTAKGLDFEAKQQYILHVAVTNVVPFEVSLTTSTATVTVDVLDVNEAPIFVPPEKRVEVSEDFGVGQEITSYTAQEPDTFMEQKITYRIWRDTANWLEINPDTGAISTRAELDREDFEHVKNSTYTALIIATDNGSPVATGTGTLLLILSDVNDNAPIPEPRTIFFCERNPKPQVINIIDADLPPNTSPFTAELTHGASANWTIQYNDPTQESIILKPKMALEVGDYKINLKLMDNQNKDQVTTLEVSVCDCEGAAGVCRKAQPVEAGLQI

[11] = molecular target: T1, human P-cadherin on the surface of cells; experiment: cell-based or functional assay; remark: listed apart in the source

B1: 129-1c4 (antibody, V domains shown)
VH: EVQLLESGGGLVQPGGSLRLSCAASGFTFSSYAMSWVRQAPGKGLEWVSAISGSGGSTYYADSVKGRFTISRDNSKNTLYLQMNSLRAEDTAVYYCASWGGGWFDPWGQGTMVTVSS
VL: QSALTQPASVSGSPGQSITISCTGTSNDVGAYNYVSWYQQHPGKAPKLILSEVNKRPSGVSNRFSGSKSGNTASLSISGLQAEDEADYYCSSFTSGSTFMLFGGGTKLTVL
notes: also called parent IgG
SW480 Spheroid Disruption Assay, Fold Increased Disruption vs Control at 5 nM [1]: 4 fold | IC50 in the A431 adhesion assay [2]: 1000 to 3000 nM | SW480 Aggregation Assay Mean IC50 [3]: 35 nM | IC50 [4]: 29 nM

B2: scFv variant of 129-1c4 with VH CDR3 SEQ ID NO: 207 and VL CDR3 SEQ ID NO: 291 (scFv, V domains shown)
VH: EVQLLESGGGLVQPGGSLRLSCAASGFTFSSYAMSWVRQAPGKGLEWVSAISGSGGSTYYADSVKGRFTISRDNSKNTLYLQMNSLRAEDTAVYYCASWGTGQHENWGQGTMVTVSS
VL: B1 VL with M100N
notes: His-tagged purified scFv; also called 207 / 291
IC50 [5]: 2.73 nM

B3: scFv variant of 129-1c4 with VH CDR3 SEQ ID NO: 163 and VL CDR3 SEQ ID NO: 43 (scFv, V domains shown)
VH: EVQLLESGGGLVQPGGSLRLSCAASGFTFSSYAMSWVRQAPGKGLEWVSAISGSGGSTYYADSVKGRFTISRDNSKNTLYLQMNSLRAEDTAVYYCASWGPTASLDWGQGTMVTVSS
VL: B1 VL with S91T, F93Y, S95M
notes: His-tagged purified scFv; also called 163 / 43
IC50 [5]: 2.45 nM

B4: 196-g03 scFv (scFv, V domains shown)
VH: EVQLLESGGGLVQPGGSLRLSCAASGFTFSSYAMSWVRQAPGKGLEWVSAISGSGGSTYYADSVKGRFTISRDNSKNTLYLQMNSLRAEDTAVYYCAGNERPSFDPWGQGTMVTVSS
VL: B1 VL with S91T, F93Y, S95M
notes: Single chain Fv in the assay
Kd [6]: 1.1 nM | koff [6]: 0.0007 s⁻¹ | Kd [7]: 0.76 nM | koff [7]: 0.00047 s⁻¹

B5: g-194-g09 (antibody, V domains shown)
VH: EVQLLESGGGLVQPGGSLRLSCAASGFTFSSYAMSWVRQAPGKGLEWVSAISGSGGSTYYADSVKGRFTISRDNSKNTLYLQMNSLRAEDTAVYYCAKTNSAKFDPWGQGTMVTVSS
VL: B1 VL with I49M, L50I, S76T, F93Y, S95M
notes: Tested as IgG; also called germlined version of 194-g09
KD(E)/KD(P) [8]: > 100 | Kd [9]: 2.6 nM | SW480 Spheroid Disruption Assay, Fold Increased Disruption vs Control at 5 nM [1]: 14 fold | binding result [10]: no binding (tested: 50 nM) | SW480 Aggregation Assay Mean IC50 [3]: 2.6 nM | A431 Adhesion Assay Mean IC50 (nM) (n = 2) [11]: 1 nM

B6: 194-b09 scFv (scFv, V domains shown)
VH: not shown
VL: B1 VL with S97L, T98P, F99W, M100V, L101V
notes: Single chain Fv in the assay
Kd [7]: 11 nM

B7: 194-g09 scFv (scFv, V domains shown)
VH: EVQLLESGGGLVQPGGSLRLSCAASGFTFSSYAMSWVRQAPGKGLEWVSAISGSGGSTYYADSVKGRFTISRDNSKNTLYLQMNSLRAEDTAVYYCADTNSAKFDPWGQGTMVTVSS
VL: B1 VL with Q40R, D87E, F93Y, S95M
notes: Single chain Fv in the assay
Kd [6]: 2.6 nM | koff [6]: 0.0016 s⁻¹ | Kd [7]: 1.8 nM | koff [7]: 0.00081 s⁻¹
